# Assays:
# [1] = target: α4β7 integrin (UniProt P13612 34-970; P26010 20-723); assay: competitive ELISA, coated α4β7 integrin, Fc-tagged MadCAM-1 as competitor, bound antibody detected with anti-human IgG-POD, 4PL fit
# Procedure: Constant amount of the coated α4β7 integrin is incubated with serial dilutions of natalizumab in the presence of Fc-tagged MadCAM-1 receptor. natalizumab and MadCAM-1 receptor now compete for binding to solid-phase associated α4β7 integrin. The higher the natalizumab concentration the more MadCAM-1 is inhibited from binding to α4β7 integrin. The lowest signal result is observed when no natalizumab is present. Bound natalizumab is subsequently detected with a POD-conjugated anti-human IgG antibody and a TMB-substrate reaction at the end of the assay.
# (§1) Data are analyzed with 4PL fitting model. Final result is expressed as a Relative Potency (REP) of tested sample in relation to reference standard. The method variability was determined at the level of 8% coefficient variation (CV) of intermediate precision within the qualification exercise. Additionally accuracy, linearity and specificity were tested.
# [2] = target: T1, integrin α4β1 (coated, direct ELISA) (UniProt P13612 34-970; P05556 21-728, limits assumed); assay: direct ELISA, coated integrin α4β1, anti-human IgG-HRP detection, 4PL fit
# T1 construct: Coated on the plate in the direct ELISA; also called α4β1 integrin; VLA-4
# Procedure: The principle of this method is to incubate a coated constant amount of integrin α4β1 with serially diluted natalizumab samples. The amount of bound natalizumab is subsequently determined by a mouse, monoclonal anti-human IgG antibody, which is conjugated to horseradish peroxidase (HRP). HRP converts the chromogenic substrate TMB (3,3′,5,5′-tetramethylbenzidine) into a colored dye. The color reaction is measured spectrophotometrically at wavelength 450 nm.
# Data are analyzed applying 4 Parameter Logistic nonlinear regression model (4PL), which is commonly used for curve-fitting analysis in bioassays or immunoassays such as ELISAs or dose-response curves. Final result is expressed as a Relative Potency (REP) of tested sample in relation to interim reference standard established at Polpharma site. The method variability was determined at the level of 7% coefficient variation (CV) of intermediate precision within the qualification exercise.
# [3] = target: HIS-tagged α4β1 integrin (UniProt P13612 34-970; P05556 21-728, limits assumed); assay: competitive ELISA, coated VCAM-1 as competitor, HIS-tagged α4β1 integrin in solution, 4PL fit
# Procedure: Constant amount of the coated VCAM-1 protein is incubated with serial dilutions of natalizumab in the presence of HIS-tagged α4β1 integrin. Solid-phase associated VCAM-1 and soluble natalizumab now compete for binding to α4β1 integrin. The higher the natalizumab concentration the more α4β1 Integrin is inhibited from binding to VCAM-1. The highest signal result is observed when no natalizumab is present. Bound HIS-tagged α4β1 integrin is subsequently detected with a biotinylated anti-HIS-tag antibody, POD-conjugated Streptavidin and a TMB-substrate reaction at the end of the assay.
# as §1, with “7%” for “8%”
Binder,"Relative Potency (REP), average [1]","Relative Potency (REP), max [1]","Relative Potency (REP), min [1]","Relative Potency (REP), average [2]","Relative Potency (REP), max [2]","Relative Potency (REP), min [2]","Relative Potency (REP), average [3]","Relative Potency (REP), max [3]","Relative Potency (REP), min [3]"
"natalizumab biosimilar antibody produced by CHO DG44 Clone 1 (antibody, human IgG4, kappa, V domains shown, Tested product from the clone selection step; full-length IgG4) VH: QVQLVQSGAEVKKPGASVKVSCKASGFNIKDTYIHWVRQAPGQRLEWMGRIDPANGYTKYDPKFQGRVTITADTSASTAYMELSSLRSEDTAVYYCAREGYYGNYGVYAMDYWGQGTLVTVSS VL: DIQMTQSPSSLSASVGDRVTITCKTSQDINKYMAWYQQTPGKAPRLLIHYTSALQPGIPSRFSGSGSGRDYTFTISSLQPEDIATYYCLQYDNLWTFGQGTKVEIKR",0.81 relative to reference standard,0.857 relative to reference standard,0.738 relative to reference standard,0.769 relative to interim reference standard,0.847 relative to interim reference standard,0.723 relative to interim reference standard,0.829 relative to reference standard,0.842 relative to reference standard,0.805 relative to reference standard
"natalizumab biosimilar antibody produced by CHO DG44 Clone 2 (antibody, human IgG4, kappa, V domains shown, Tested product from the clone selection step; full-length IgG4) VH: QVQLVQSGAEVKKPGASVKVSCKASGFNIKDTYIHWVRQAPGQRLEWMGRIDPANGYTKYDPKFQGRVTITADTSASTAYMELSSLRSEDTAVYYCAREGYYGNYGVYAMDYWGQGTLVTVSS VL: DIQMTQSPSSLSASVGDRVTITCKTSQDINKYMAWYQQTPGKAPRLLIHYTSALQPGIPSRFSGSGSGRDYTFTISSLQPEDIATYYCLQYDNLWTFGQGTKVEIKR",0.831 relative to reference standard,0.858 relative to reference standard,0.79 relative to reference standard,0.679 relative to interim reference standard,0.732 relative to interim reference standard,0.611 relative to interim reference standard,0.903 relative to reference standard,0.93 relative to reference standard,0.85 relative to reference standard
"natalizumab reference product (9 batches) (antibody, human IgG4, kappa, V domains shown) VH: QVQLVQSGAEVKKPGASVKVSCKASGFNIKDTYIHWVRQAPGQRLEWMGRIDPANGYTKYDPKFQGRVTITADTSASTAYMELSSLRSEDTAVYYCAREGYYGNYGVYAMDYWGQGTLVTVSS VL: DIQMTQSPSSLSASVGDRVTITCKTSQDINKYMAWYQQTPGKAPRLLIHYTSALQPGIPSRFSGSGSGRDYTFTISSLQPEDIATYYCLQYDNLWTFGQGTKVEIKR",0.998 relative to reference standard,1.08 relative to reference standard,0.922 relative to reference standard,,,,1.02 relative to reference standard,1.15 relative to reference standard,0.935 relative to reference standard
